Measured values as given in PMC10891947, “Gene Expression of Ethanol and Acetate Metabolic Pathways in the Acinetobacter baumannii EmaSR Regulon” (Microorganisms, 2024).
Several values for one entry are separate records, joined by “and”; a condition that tells them apart may be missing. Equal entries are not always repeated.

Legend:
purified protein [1] = substrate: CC(=O)O; test: purified protein; conditions: pH 8.0 potassium phosphate buffer, co-substrate succinyl-CoA, one experiment
purified protein [2] = substrate: CC(C)(COP(=O)(O)OP(=O)(O)OC[C@H]1O[C@@H](n2cnc3c(N)ncnc32)[C@H](O)[C@@H]1OP(=O)(O)O)[C@@H](O)C(=O)NCCC(=O)NCCSC(=O)CCC(=O)O; test: purified protein; format: biochemical, Acinetobacter baumannii; conditions: pH 8.0 potassium phosphate buffer, co-substrate acetate, one experiment

B1: DJ41_2796 (Acinetobacter baumannii ATCC 19606 = CIP 70.34 = JCM 6841) (protein)
chain: MSLSRIRLASLHDKVISAEQAAQFIENGMTVGMSGFTRAGEAKAVPQALVELAKKNPLKITLITGASLGNDLDKQLTEAGVLSRRMPFQVDNTLRRAINNGEVMFIDQHLSETVEQMRNQQLKRPDVAVIEAIAITEDGGIIPTTSVGNSASFAIFAEKVIVEINTSLSESFEGLHDIYIPTYRPTRTPIPLTKVDERIGTTAIQIDPSRIVGIVFNDTHDSPSTVTPPDDETQGIANHLIAFFEKEVAEGRLPKNLGPLQAGIGSIANAVLTGLKDSNFEDLIMYSEVLQDCTFELIDAGKMKFASGSSITLSAKCGEKVFGNIEAYKDKLVLRPQEISNHPELVRRLGIIGINTALEFDIYGNVNSTHVCGTKMMNGIGGSGDFARNAHLAIFVTKSIAKGGDISSIVPMVSHVDHSEHDVDILVTEQGLADLRGLAPRERARAIIDNCVHPLYRDALNDYFDRACAKGGHTPHLLREALSWHANFEETGQMLQPTPVAKSA
Purified protein [1]
  Km: 14.74 mM and 39 mM
  Vmax: 0.0335 µmol/min and 0.0415 µmol/min
  kcat: 6.7 s⁻¹ and 8.31 s⁻¹
  kcat/Km: 455 M⁻¹ s⁻¹ and 213 M⁻¹ s⁻¹
Purified protein [2]
  Km: 0.3418 mM
  Vmax: 0.035 µmol/min
  kcat: 6.99 s⁻¹
  kcat/Km: 20500 M⁻¹ s⁻¹
